This note sets out measurements from publication PMC7125023.

The assay concerns the target anti-RSV 2Fc mAb (dual Fc human IgG1, clone B21M variable regions) (human). The experiment in a line: SPR.

What is called Kd is a measure of binding affinity in units of concentration. As usually defined, the stoichiometry N is a count of units in the complex or per binding partner. On to “human FcγRI (from UniProt P12314 16-292) (receptor)”, for which the Kd is 0.00182 µM and the stoichiometry N is 2.12 FcR:mAb.
Taken in the same sequence, the figures for “human neonatal Fc receptor (FcRn) (from UniProt P55899 24-297)” were 0.121 µM and 4.17 FcR:mAb.
